Data published in PMC5699509.
Read-outs that look alike come from different tables or passages of the source.

B1: oligo 9 ssDNA (AF546 poly-dA) (ssDNA)
DNA: AAAAAAAAAAAAAAAAAAAAAAAAA
B2: oligo 9/10 dsDNA (AF546) (dsDNA)
DNA 1: AAAAAAAAAAAAAAAAAAAAAAAAA
DNA 2: TTTTTTTTTTTTTTTTTTTTTTTTT

Assays:
Assay in all cases: fluorescence quenching
[1] = target: T1, RAD51 WT (Homo sapiens, UniProt Q06609 1-339)
[2] = target: T2, RAD51 E258A (Homo sapiens, UniProt Q06609 1-339, E258A)
[3] = target: T3, RAD51 F86L (Homo sapiens, UniProt Q06609 1-339, F86L)
T3 sequence (Q06609 whole entry F86L): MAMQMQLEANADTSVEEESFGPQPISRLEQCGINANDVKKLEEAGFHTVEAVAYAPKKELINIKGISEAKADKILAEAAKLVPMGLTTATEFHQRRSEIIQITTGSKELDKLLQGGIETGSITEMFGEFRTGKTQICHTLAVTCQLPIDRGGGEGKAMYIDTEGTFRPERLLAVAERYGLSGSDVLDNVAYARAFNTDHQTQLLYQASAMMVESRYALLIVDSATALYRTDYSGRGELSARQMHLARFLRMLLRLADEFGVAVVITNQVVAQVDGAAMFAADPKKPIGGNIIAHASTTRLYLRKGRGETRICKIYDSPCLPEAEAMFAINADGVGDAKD

[4] = target: T1, RAD51 WT; remark: listed apart in the source
[5] = target: T2, RAD51 E258A; remark: listed apart in the source
[6] = target: T3, RAD51 F86L; remark: listed apart in the source

T2 sequence (Q06609 whole entry E258A): as the sequence (Q06609 whole entry F86L) above, with L86F, E258A counted along it
T1 sequence (Q06609 whole entry): as the sequence (Q06609 whole entry F86L) above, with L86F counted along it

Row | Binder | Kd [1] [nM] | Kd [2] [nM] | Kd [3] [nM] | Kd [4] [nM] | Kd [5] [nM] | Kd [6] [nM]
1 | B1 | 600 ± 100 | 3100 ± 300 | 4900 ± 400 | 1900 ± 200 | – | –
2 | B2 | 700 ± 100 | 1300 ± 100 | 1800 ± 200 | 800 ± 100 | 2100 ± 100 | 1700 ± 100
